Common to all, as to format: cell-based
The subject of assay [1] is EBC1-SR#6 cell line (compared with EBC1 parental cell line). Briefly: EZ-Cytox cell viability assay, 72 hours after treatment. The note with it: EBC1-SR#6 vs EBC1 parental cell line, sole treatment, FIG. 2/FIG. 3.
Protocol: To examine whether the quantitative increase of PDGF protein contributes to obtaining resistance in anti-c-Met antibody resistance acquired cell line, EBC1 and EBC1-SR#6 cell lines were treated with PDGFR (PDGF Receptor) TKI (tyrosine kinase inhibitor), then the changes of cell growth inhibition were measured using EZ-Cytox Cell viability assay kit (DaeiLab Service, Seoul, Korea).
For this, each of EBC1 cells and EBC1-SR#6 cells were seeded on 96-well plate at the amount of 5000 (5×10^3) cells. […] Seventy two hours after the treatment, the number of the cells was measured by EZ-Cytox Cell viability assay kit.
In another assay the test system is EBC1-SR#6 cell lines. Briefly: CellTiter Glo assay confirming acquired resistance to SAIT301. As to conditions: resistance-acquired clones; 0-2 ug/ml; 72 hours after the antibody treatment. As for the experimental part: EBC1 (JCRB 0820) cell lines was treated with SAIT301 for at least 2 months, with increasing the concentration of treated antibody. The concentration of SAIT301 was increased from 1 ug/ml to 10 ug/ml until a resistance is induced. To confirm the acquisition of a resistance to SAIT301, the prepared clones were treated with SAIT301 at the concentration of 0 ug/ml, 0.016 ug/ml, 0.08 ug/ml, 0.4 ug/ml, or 2 ug/ml, and 72 hours after the antibody treatment, the number of the living cells was counted by CellTiter Glo assay (Promega, G7573).
The obtained SAIT301 resistance acquired cell lines were named EBC1-SR#6.
In general terms: Cellular ATP, detected with luciferase, serves as a proxy for viable cell number.

In another assay the test system is EBC1 parent cells. The assay is described as follows: Responsiveness of parent cells to SAIT301 before inducing resistance. Here is the method:
To examine the quantitative change of PDGF when a resistance to an anti-c-Met antibody is induced, SAIT301 resistance acquired EBC1-SR#6 cell lines were prepared by repeatedly treating EBC1 (JCRB 0820) cells with SAIT301. EBC1 parent cells were all responsive to SAIT301, before inducing SAIT301 resistance. The SAIT301 resistance acquired EBC1-SR#6 cell lines were prepared as follows: […]

From patent publication US9869668B2, “PDGF as a biomarker for predicting resistance or effect of c-Met targeting drugs” (SAMSUNG ELECTRONICS CO., LTD., priority 2014, dated 2018) come the findings set out here.

On to `CCN(CC)CCCCNc1ncc2cc(-c3cc(OC)cc(OC)c3)c(NC(=O)NC(C)(C)C)nc2n1` [PD173074], for which, in assay [1], the “chemosensitivity of EBC1-SR#6 cell line compared with EBC1” value was “not changed markedly”.

B1: SAIT301: anti-c-Met antibody: huAbF46-H4-A1 heavy chain variable region, human IgG2 hinge and constant region, kappa light chain (antibody)
heavy: EVQLVESGGGLVQPGGSLRLSCAASGFTFTDYYMSWVRQAPGKGLEWLGFIRNKANGYTTEYSASVKGRFTISRDNSKNTLYLQMNSLRAEDTAVYYCARDNWFAYWGQGTLVTVSSASTKGPSVFPLAPCSRSTSESTAALGCLVKDYFPEPVTVSWNSGALTSGVHTFPAVLQSSGLYSLSSVVTVPSSNFGTQTYTCNVDHKPSNTKVDKTVERKCCVECPPCPAPPVAGPSVFLFPPKPKDTLMISRTPEVTCVVVDVSHEDPEVQFNWYVDGVEVHNAKTKPREEQFNSTFRVVSVLTVVHQDWLNGKEYKCKVSNKGLPAPIEKTISKTKGQPREPQVYTLPPSREEMTKNQVSLTCLVKGFYPSDIAVEWESNGQPENNYKTTPPMLDSDGSFFLYSKLTVDKSRWQQGNVFSCSVMHEALHNHYTQKSLSLSPGK
light: DIQMTQSPSSLSASVGDRVTITCKSSQSLLASGNQNNYLAWYQQKPGKAPKMLIIWASTRVSGVPSRFSGSGSGTDFTLTISSLQPEDFATYYCQQSYSRPYTFGQGTKVEIKRTVAAPSVFIFPPSDEQLKSGTASVVCLLNNFYPREAKVQWKVDNALQSGNSQESVTEQDSKDSTYSLSSTLTLSKADYEKHKVYACEVTHQGLSSPVTKSFNRGEC
B1: the “effect of antibody on number of living cells” value in the assay with EBC1-SR#6 cell lines is listed as “no effect”. Besides, the “responsiveness of cells to antibody” value with EBC1 parent cells was “responsive”.
